Experimental data as given in the DeepSol protein solubility set.

Assay: soluble on expression in E. coli; label from the status in PepcDB or PDB records

| Sequence | soluble on expression in E. coli |
| --- | --- |
| MGSDKIHHHHHHMKISETANKNHEELFPDHKSALKITDPELVEIFDNFAFDEVIQHGDLDTKTRLMVILGALIGSQTLSEYKVMLKGALNVGVTPIEVKEIVYQSVPYVGIAKAYDFINATNEILESRGVKLPLEGQSTTTPENRHEKGLEVQKSIFGEIIDKMYESSPKNQIHIQKYLSANCFGDYYTRTGLDIKTRELLTFCIILALGGCESQLKGHIVGNLNVGNDKKVLLDAVTQTLPYVGYPRTLNAIACLNEIIPE | not soluble |
| MKKALLVVSFGTSYHDTCEKNIVACERDLAASCPDRDLFRAFTSGMIIRKLRQRDGIDIDTPLQALQKLAAQGYQDVAIQSLHIINGDEYEKIVREVQLLRPLFTRLTLGVPLLSSHNDYVQLMQALRQQMPSLRQTEKVVFMGHGASHHAFAAYACLDHMMTAQRFPARVGAVESYPEVDILIDSLRDEGVTGVHLMPLMLVAGDHAINDMASDDGDSWKMRFNAAGIPATPWLSGLGENPAIRAMFVAHLHQALNMAVEEAA | soluble |
| MGSDKIHHHHHHMEKIKGKNTVNCEICLHNSKTRPMFKHEGKNICIECLNALKFPRNFEEMKNEVMDYLDELRIRNNKYNCILGFSGGKDSVVALYLLVKELRIRPLCVTVDNGYLAEEALTNCKNVAKYFGVDWLVINKDFTKFFKETISKGESPCRVCSDMNMHELWQFARQTNIDTIVTGHELPFGTTAIRGMKKGINMLRLLVAYKLTEEDRYNILKEIPWEKPDLGGYTTNCLVLAPALVEFKKKHGFSFEYDRVSAMIRYGLMTREEAEEALKCPEVSDEIYEELKKRGLDFKNLKE | not soluble |
| ELIEPEPRPLIITPSVIELPILRRRDIYMEVANVSIGRAADALARHFDVFVQLPLPNVNIFEVSELHMALRDLASHDNVSGVCQGFCGEGIAGEALVILSDSSVSDLKKLMKVPADSEELEELELLMDISNILVGSFLNGLGEQSEVRFFQSPPVLLGQHISIDSIIESTTGAFKRTMTFEVSYNIEGTSIRCDLLFMFVDESLPLLDNKLAYLMEEF | not soluble |
| MGSDKIHHHHHHMEFSAKQIAAFIQGEIIGDENATVHTFAKIEEGMPGAISFLSNPKYTPYIYETQSSIVLVNKDFVPEHEIRATLIKVDNAYESLAKLLNLYEMSKPKKQGIDSLAYIAPSAKIGENVYIGAFAYIGENAVIGDNTQIYPHTFVGDGVKIGNGCLLYSNVNVYHDCRIGNECILHSGAVIGADGFGFAPTPNGYDKIPQIGIVILEDKVDIGANTCVDRATMGATIIHSGAKIDNLVQIAHNDEIGSHTVMAAQVGIAGSAKIGEWCMFGGQVGIAGHITIGDRVNLGAQSGIPSSIKADSVLIGTPPMEPKAYFKAAVVTKNLPDMQKEIRNLRKEVEELKQLLNK | not soluble |
| MGSDKIHHHHHHMNELTNKLQQVMVPKAALIAYEYRENRYGNGMHYLELHPINDRGRMEAAMPVTYEFMDSLVESYTDDRRNVPHGKIPANMLWCDTRKGHERYIWYNPPGKRRMFFAGSLNIPDGTFHVPGVIYKVSGDRLDIFSYKGEKPAENSPLFLAPFFNVTGSSVCLGNAALTPPEDMTFSKLLEYWEKRFWLSEFSHLGGSRNPTGSNLVSVTEKARANPFDENELKPMSKQLKDLLA | not soluble |
| MALKATIYKATVNVADLDRNQFLDASLTLARHPSETQERMMLRLLAWLKYADERLQFTRGLCADDEPEAWLRNDHLGIDLWIELGLPDERRIKKACTQAAEVALFTYNSRAAQIWWQQNQSKCAQFANLSVWYLDDEQLAKVSAFADRTMTL | not soluble |
| ADEVAQTLAKVLTESSMPRENLLLSSFSHDVIRALYQHCEGYRLGVLSEFFTKKDGLLLDEVKAYSCNLNINWVRSRQIIKLQEAGYKVMCYTVNNPNKLKHLPQLDGIFSDHPKRFMQ | not soluble |
| MLPHTGLFLLGKVALQMRIRRRLKQGVIMAKTNNKPETAETAAPSFEDIKAELDAVQAELAAARNDVEMLTTALEKAEDDKKALSAELAELKVQHTQRAADALADSRDVMLVSTGADGKEFWRGGLLFDGGWREVKRAEVGEAVWKAICAEPMLQRKAVE | not soluble |
| MGSDKIHHHHHHMISDSISKRRSIRKYKNQSISHETIEKIIEAGINAPSSKNRQPWRFVVITEKEKESMLKAMSKGIQNEINDNGLLPGSRQHIAGANYTVEIMKQAPVTIFILNILGKSPLEKLSPEERFYEMANMQSIGAAIQNMSLTAVELGLGSLWICDVYFAYRELCEWLNTDSQLVAAISLGYPDEEPSRRPRLQLSDVTEWR | not soluble |
| MSIQKNTSTTSSSTLLDLIVIGGGINGAGIAADAAGRGLSVGLYEANDFASATSSASSKLIHGGLRYLEHYEFRLVSEALAEREVILRKAPHVALPMRFRLPHRPFLRPAWMIRCGLFLYDNLGKRTTLPGSKTVNLAKSGLLKPEMKTGFEYSDCWVDDARLVLLNVMAARENHAEVRNYCRVEKAHRENGVWHVTIHDVTTDQRFERKAKALVNAAGPWVKQFFDEGLEQTSPRNIRLIKGSHIVVPRIHNEPQAYILQNKDNRIVFMIPYLDKFSIIGTTDVEYKGDPREVAISDDEVDYLIDIVNQHFVHQLTREDVVWTYSGVRPLCDDESDSPQAITRDYTLELDAEYDQAPLLSVFGGKLTTYRKLGEAAMKKLEPYLPQMGGNWTANQTLPGGNFSCTREQLAKQIHAKYSWAPQALILRYVTQFGTQTWDLMEGASSEADLGQAFSEQAGGVYQREIDYLMNHEMALTDEDILWRRTKLGLYMNDEEKQALADYLKEKLQQKVVNLSQVSLEHHHHHH | soluble |
| MSLSRSEEMHRLTENVYKTIMEQFNPSLRNFIAMGKNYEKALAGVTFAAKGYFDALVKMGELASESQGSKELGDVLFQMAEVHRQIQNQLEETLKSFHNELLTQLEQKVELDSRYLSAALKKYQTEQRSKGDALDKCQAELKKLRKKSQGSKNPQKYSDKELQYIDAISNKQGELENYVSDGYKTALTEERRRFCFLVEKQCAVAKNSAAYHSKGKELLAQKLPLWQQACADPNKIPDRAVQLMQQMANSNGSILPSALSASKSNLVISDPIPGAKPLPVPPELAPFVGRMSAQENVPVMNGVAGPDSEDYNPWADRKAAQPKSLSPPQSQSKLSDSYSNTLPVRKSVTPKNSYATTENKTLPRSSSMAAGLERNGRMRVKAIFSHAAGDNSTLLSFKEGDLITLLVPEARDGWHYGESEKTKMRGWFPFSYTRVLDSDGSDRLHMSLQQGKSSSTGNLLDKDDLALPPPDYGTSSRAFPTQTAGTFKQRPYSVAVPAFSQGLDDYGARSVSR | not soluble |
| MANHAKLVDQEIYRSPVDDFELNYQEYLNDDDDDKQEAPVAVSKAPKGKGSNHGLGCRMKGLFDGFGGTDLKTIMRHLRRRRPKSGQALTNFMLSGNMEKVVDQHVKDFVHHFGRINPENGRIMGALRGNDFFNFGGLHNNLGNTGKVYLDNLMKGKCGKKRKVHKFKPIVVEELDFGAPKPAVPATPKAPVAPVAPVIPAPAVTPQKPKVDEPTYADSVSDFGLDFETEREKCLRNKTLFEDPEFPATAASLYYRTPPRDRIIWKRPGEIIANPQLITQGESRFDVKQGALGDCWFLAALANITLYDALFYRIVPPNQSFTENYAGIFHFQFWHYGKWVDVVVDDRLPTVNNQLYYLHSADNTEFWSALVEKAYAKLHGGYENLDGGTTAEALEDFTGGLTEYFDLRKSEKAAVLAALVKGMEMGSLFGCSIDADANIKEAQLRNGLVCGHAYSITAIHSITYYGEDTTLLRLRNPWGNEKEWNGAWSDGSSEWSKIDEATKKQIDVQFARDGEFWMSFEDFFSNFTQMEVCNLTAEIFDEIAEMTGVNRATETVEEEHQWHEIMEDGEWSSKHSWRLQQQPIYLPQEPSILHFLHSTTILY | not soluble |
| MKLIRGIHNLSQAPQEGCVLTIGNFDGVHRGHRALLQGLQEEGRKRNLPVMVMLFEPQPLELFATDKAPARLTRLREKLRYLAECGVDYVLCVRFDRRFAALTAQNFISDLLVKHLRVKFLAVGDDFRFGAGREGDFLLLQKAGMEYGFDITSTQTFCEGGVRISSTAVRQALADDNLALAESLLGHPFAISGRVVHGDELGRTIGFPTANVPLRRQVSPVKGVYAVEVLGLGEKPLPGVANIGTRPTVAGIRQQLEVHLLDVAMDLYGRHIQVVLRKKIRNEQRFASLDELKAQIARDELTAREFFGLTKPA | soluble |
